Test results as given in US11555055B2, “Peptide inhibitors of insulin-degrading enzyme” (The Regents of the University of California, priority 2017, dated 2023).
Where a SMILES comes first, the peptide text is derived from it. Bridges are numbered along the chain shown (N, C = ends). Where no end group is shown, it is not given here.

Tests used:
[1] = target: T1, IDE (Homo sapiens, UniProt P14735); experiment: IDE protease activity assay with FRET1 substrate; type: biochemical; conditions: Ki converted from IC50 with the Cheng-Prusoff equation
T1 construct: made in house; host or cells: bacteria
T1 sequence (P14735 1-1019): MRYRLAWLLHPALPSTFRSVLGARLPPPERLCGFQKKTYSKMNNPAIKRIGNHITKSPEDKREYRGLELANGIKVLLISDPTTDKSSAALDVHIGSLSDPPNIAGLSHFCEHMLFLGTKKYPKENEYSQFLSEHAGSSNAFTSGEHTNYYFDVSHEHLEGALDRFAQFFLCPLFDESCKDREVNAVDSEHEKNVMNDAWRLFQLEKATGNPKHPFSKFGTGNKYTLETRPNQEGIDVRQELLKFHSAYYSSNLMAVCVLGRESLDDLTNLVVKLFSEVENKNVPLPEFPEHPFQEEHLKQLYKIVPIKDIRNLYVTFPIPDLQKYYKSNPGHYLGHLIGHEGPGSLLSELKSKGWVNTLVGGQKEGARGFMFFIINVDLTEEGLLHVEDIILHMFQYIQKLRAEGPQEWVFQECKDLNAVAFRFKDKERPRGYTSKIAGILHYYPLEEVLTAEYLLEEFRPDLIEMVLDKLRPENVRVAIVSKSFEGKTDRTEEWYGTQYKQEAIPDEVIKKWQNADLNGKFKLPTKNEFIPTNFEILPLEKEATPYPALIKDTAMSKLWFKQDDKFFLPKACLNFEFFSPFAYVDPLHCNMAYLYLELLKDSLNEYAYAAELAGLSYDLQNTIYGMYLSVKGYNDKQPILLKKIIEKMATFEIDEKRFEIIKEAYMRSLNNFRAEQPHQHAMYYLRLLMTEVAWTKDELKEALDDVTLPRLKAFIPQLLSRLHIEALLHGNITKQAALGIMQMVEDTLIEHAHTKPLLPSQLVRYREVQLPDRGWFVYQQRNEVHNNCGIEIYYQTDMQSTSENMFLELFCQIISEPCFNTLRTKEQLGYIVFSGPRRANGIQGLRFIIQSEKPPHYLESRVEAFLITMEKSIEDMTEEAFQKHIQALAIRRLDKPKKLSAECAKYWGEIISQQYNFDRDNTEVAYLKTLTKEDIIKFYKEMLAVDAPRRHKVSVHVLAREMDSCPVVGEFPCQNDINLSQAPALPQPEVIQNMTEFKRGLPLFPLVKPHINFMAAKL

[2] = target: T1, IDE; experiment: IDE protease activity assay, insulin degradation quantified by ELISA; type: biochemical; conditions: substrate recombinant human insulin; Ki converted from IC50 with the Cheng-Prusoff equation; read-out: Ki Insulin
Experimental: To assess the extent to which these peptide sequences inhibit IDE, we quantified their potency in protease activity assays using recombinant human IDE and two different substrates: FRET1, a fluorogenic peptide (45), and recombinant human insulin.
Degradation Assays—IDE activity was quantified by monitoring the degradation of (7-methoxycoumarin-4-yl)acetic acid-[…](2,4-dinitrophenyl) (FRET1, 5 μM) (49,55), fluoresceinated and biotinylated amyloid β-protein (FAβB; 500 nM) or recombinant human insulin (50 nM) in PBS supplemented with 0.05% BSA. FRET1 degradation was measured by changes in fluorescence (λex=340 nm, λem=420 nm); FAβB degradation was monitored by fluorescence polarization (λex=488 nm, λem=525 nm), as described (56); and insulin degradation was quantified by ELISA. In vitro activity assays incorporated recombinant human IDE (1 nM) purified from bacteria (35). For quantitation of insulin degradation in primary murine skin fibroblasts, cells (1×10^5/well) were plated in 96-well plates and maintained in DMEM supplemented with 10% fetal bovine serum (FBS), 2 mM glutamine, penicillin and streptomycin. After addition of insulin (10 nM or 100 nM), samples of conditioned medium were removed daily and quickly frozen, then insulin levels were quantified in parallel by ELISA according to manufacturer's recommendations (Crystal Chem, Downers Grove, Ill., USA). Assessment of the activity of P12-3A against a variety of matrix-metalloproteases was conducted using the Matrix Metalloproteinase (MMP) Inhibitor Profiling Kit, Fluorometric RED (Enzo Life Sciences, Inc., Farmingdale, N.Y., USA) according to manufacturer's recommendations using the broad-spectrum MMP inhibitor, NNGH, as a positive control.

[3] = target: T2, recombinant human insulin-degrading enzyme (IDE) (human, UniProt P14735 42-1019, limits assumed); experiment: IDE activity assay, FRET1 substrate
T2 construct: Used at 1 nM in the in vitro activity assays; immobilised on plates for phage panning
T2 sequence (looked up): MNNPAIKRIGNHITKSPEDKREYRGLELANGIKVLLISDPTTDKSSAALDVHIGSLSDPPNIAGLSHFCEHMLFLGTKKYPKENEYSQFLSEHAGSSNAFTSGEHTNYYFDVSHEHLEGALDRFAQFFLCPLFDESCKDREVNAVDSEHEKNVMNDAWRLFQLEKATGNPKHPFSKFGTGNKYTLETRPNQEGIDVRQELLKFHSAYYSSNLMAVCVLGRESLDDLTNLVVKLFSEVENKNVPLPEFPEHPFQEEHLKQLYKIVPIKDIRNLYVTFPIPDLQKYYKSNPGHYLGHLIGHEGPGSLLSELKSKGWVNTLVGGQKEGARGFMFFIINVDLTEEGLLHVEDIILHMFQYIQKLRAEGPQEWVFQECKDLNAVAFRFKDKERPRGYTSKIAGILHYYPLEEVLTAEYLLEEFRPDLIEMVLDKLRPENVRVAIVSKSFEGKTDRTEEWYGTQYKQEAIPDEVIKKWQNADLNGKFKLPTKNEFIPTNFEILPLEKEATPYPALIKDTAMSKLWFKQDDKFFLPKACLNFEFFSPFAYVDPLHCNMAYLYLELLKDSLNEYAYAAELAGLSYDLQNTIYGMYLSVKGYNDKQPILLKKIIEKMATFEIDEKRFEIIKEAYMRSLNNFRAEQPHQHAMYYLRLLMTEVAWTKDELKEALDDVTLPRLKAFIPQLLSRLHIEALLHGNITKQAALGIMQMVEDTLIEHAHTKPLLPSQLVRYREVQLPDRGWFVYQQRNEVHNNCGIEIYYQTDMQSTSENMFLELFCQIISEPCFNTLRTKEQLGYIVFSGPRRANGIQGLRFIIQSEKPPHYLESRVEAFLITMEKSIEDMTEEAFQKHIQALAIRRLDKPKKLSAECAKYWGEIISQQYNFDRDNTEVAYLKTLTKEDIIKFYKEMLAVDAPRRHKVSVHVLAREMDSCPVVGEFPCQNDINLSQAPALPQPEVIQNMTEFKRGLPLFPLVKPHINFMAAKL

[4] = target: T2, recombinant human insulin-degrading …; experiment: IDE activity assay, insulin substrate (ELISA)
[5] = target: T2, recombinant human insulin-degrading …; experiment: IDE activity assay, FRET1 substrate; IC50 converted to Ki (Cheng-Prusoff)

Which results are given for CC[C@H](C)[C@@H]1NC(=O)[C@H](CO)NC(=O)[C@H](Cc2c[nH]c3ccccc23)NC(=O)[C@H](Cc2c[nH]c3ccccc23)NC(=O)[C@H](CO)NC(=O)[C@@H](NC(=O)[C@H](C)N)CSSC[C@@H](C(=O)NCC(=O)O)NC(=O)[C@H](CC(C)C)NC(=O)[C@H](Cc2c[nH]cn2)NC1=O [Peptide C7C-1] (H-ACSWWSIHLCG-OH; disulfide 2-10)?
Ki [1]: 112 ± 6 µM; Ki [2]: 3700 ± 700 nM

Which results are given for CC(C)[C@H](N)C(=O)N[C@@H](Cc1c[nH]cn1)C(=O)N[C@@H](Cc1c[nH]c2ccccc12)C(=O)N[C@@H](CC(=O)O)C(=O)N[C@@H](Cc1ccccc1)C(=O)N[C@@H](CCCNC(=N)N)C(=O)N[C@@H](CCC(N)=O)C(=O)N[C@@H](Cc1c[nH]c2ccccc12)C(=O)N[C@@H](Cc1c[nH]c2ccccc12)C(=O)N[C@@H](CCC(N)=O)C(=O)N1CCC[C@H]1C(=O)N[C@@H](CO)C(N)=O [Peptide P12-1A] (H-VHWDFRQWWQPS-NH2)?
Ki [1]: 5 ± 0.3 µM; Ki [2]: 1300 ± 200 nM

For CC(C)[C@H](N)C(=O)N[C@@H](Cc1c[nH]cn1)C(=O)N[C@@H](Cc1c[nH]c2ccccc12)C(=O)N[C@@H](CC(=O)O)C(=O)N[C@@H](Cc1ccccc1)C(=O)N[C@@H](CCCNC(=N)N)C(=O)N[C@@H](CCC(N)=O)C(=O)N[C@@H](Cc1c[nH]c2ccccc12)C(N)=O [Peptide P12-1B] (H-VHWDFRQW-NH2), which Ki [1] is on record?
Its Ki is 41 ± 6.4 µM.

And the Ki [2]?
Its Ki is 7000 ± 1700 nM.

How did the Ki [1] turn out when CC(C)[C@H](N)C(=O)N[C@@H](Cc1c[nH]cn1)C(=O)N[C@@H](Cc1c[nH]c2ccccc12)C(=O)N[C@@H](CC(=O)O)C(=O)N[C@@H](Cc1ccccc1)C(=O)N[C@@H](CCCNC(=N)N)C(=O)N[C@@H](CCC(N)=O)C(=O)N[C@@H](Cc1c[nH]c2ccccc12)C(=O)N[C@@H](Cc1c[nH]c2ccccc12)C(=O)N[C@@H](CCC(N)=O)C(=O)N1CCC[C@H]1C(=O)N[C@@H](CO)C(=O)O [Peptide P12-1] (H-VHWDFRQWWQPS-OH) was run?
The Ki was 7.7 ± 0.7 µM.

And the Ki [2]?
Its Ki is 800 ± 40 nM.

How did the Ki [1] turn out when CC(C)C[C@H](NC(=O)[C@H](CO)NC(=O)[C@@H](N)CCC(N)=O)C(=O)N1CCC[C@H]1C(=O)N[C@@H](Cc1c[nH]c2ccccc12)C(=O)N[C@@H](CS)C(=O)N[C@@H](Cc1ccc(O)cc1)C(=O)N1CCC[C@H]1C(N)=O [Peptide P12-3B] (H-QSLPWCYP-NH2) was run?
The Ki was 39 ± 20 µM.

Which results are given for CC[C@H](C)[C@H](NC(=O)[C@@H]1CCCN1C(=O)[C@H](CO)NC(=O)[C@@H](N)Cc1c[nH]c2ccccc12)C(=O)N[C@@H](CO)C(=O)NCC(=O)N[C@@H](CCCCN)C(=O)N[C@@H](Cc1ccccc1)C(=O)N[C@@H](Cc1ccccc1)C(=O)N[C@@H](CCC(N)=O)C(=O)N[C@@H](CCCNC(=N)N)C(=O)N[C@@H](Cc1ccccc1)C(N)=O [Peptide P12-4A] (H-WSPISGKFFQRF-NH2)?
Ki [1]: 4.2 ± 1.3 µM; Ki [2]: 2600 ± 700 nM

For CC[C@H](C)[C@H](NC(=O)[C@@H]1CCCN1C(=O)[C@H](CO)NC(=O)[C@@H](N)Cc1c[nH]c2ccccc12)C(=O)N[C@@H](CO)C(=O)NCC(=O)N[C@@H](CCCCN)C(=O)N[C@@H](Cc1ccccc1)C(=O)N[C@@H](Cc1ccccc1)C(=O)N[C@@H](CCC(N)=O)C(=O)N[C@@H](CCCNC(=N)N)C(=O)N[C@@H](Cc1ccccc1)C(=O)O [Peptide P12-4] (H-WSPISGKFFQRF-OH), which Ki [1] is on record?
The Ki was 3.9 ± 0.5 µM.

And the Ki [2]?
The Ki was 1500 ± 300 nM.

B1: C7C-2 (peptide)
peptide: ACNAGHLSQCG
modifications: disulfide 2-10 (inferred)
notes: the synthesized peptide has one C-terminal glycine
Which results are given for B1?
Ki [3]: > 500 µM; Ki [4]: > 10 µM

B2: C7C-2A (peptide)
peptide: ACNAGHLSQCG-NH2
modifications: disulfide 2-10 (inferred)
notes: also called amidated derivative of C7C-2
How did the Ki [3] turn out when B2 was run?
The Ki was greater than 500 µM.

What about the Ki [4] of the same molecule?
Its Ki is greater than 10 µM.

B3: P12-1C (peptide)
peptide: Ac-FRQWWQPS
notes: also called N-terminally truncated variant of P12-1
B3 was tested. Which Ki [4] did it give?
The Ki was greater than 10 µM.

What about the Ki [5] of the same molecule?
The Ki was 139 µM.

How did the Ki [3] turn out when LNFPMPSRPHSS [P12-2] was run?
Its Ki is greater than 100 µM.

And the Ki [4]?
Its Ki is greater than 10 µM.

With LNFPMPSRPHSS-NH2 [P12-2A] as the molecule, how does the Ki [3] read?
The Ki was greater than 100 µM.

What about the Ki [4] of the same molecule?
Its Ki is greater than 10 µM.

Which results are given for LNFPMPSR-NH2 [P12-2B]?
Ki [3]: > 500 µM; Ki [4]: > 10 µM

How did the Ki [3] turn out when Ac-MPSRPHSS [P12-2C] was run?
The Ki was greater than 500 µM.

What about the Ki [4] of the same molecule?
Its Ki is greater than 10 µM.

How did the Ki [3] turn out when Ac-FPMPSRPH-NH2 [P12-2D] was run?
Its Ki is greater than 500 µM.

And the Ki [4]?
The Ki was greater than 10 µM.

B4: P12-3B (peptide)
peptide: QSLPWCYP-NH2
notes: also called C-terminally truncated variant of P12-3
With B4 as the molecule, how does the Ki [4] read?
The Ki was greater than 10 µM.

B5: P12-3C (peptide)
peptide: Ac-WCYPHCVT-OH
modifications: cysteine pairing not given here
notes: also called N-terminally truncated variant of P12-3
Which Ki [4] does the source give for B5 here?
The Ki was greater than 10 µM.

Which results are given for WSPISGKF-NH2 [P12-4B]?
Ki [3]: > 500 µM; Ki [4]: > 10 µM

For Ac-SGKFFQRF [P12-4C], which Ki [3] is on record?
Its Ki is greater than 500 µM.

What about the Ki [4] of the same molecule?
Its Ki is greater than 10 µM.

With Ac-PISGKFFQ-NH2 [P12-4D] as the molecule, how does the Ki [3] read?
The Ki was greater than 500 µM.

And the Ki [4]?
Its Ki is greater than 10 µM.

ACSWWSIHLCGGG (disulfide 2-10 (inferred)) [C7C-1B] was tested. Which Ki [3] did it give?
The Ki was greater than 100 µM.

And the Ki [4]?
The Ki was greater than 10 µM.
